The source of these data is PMC2818353.

This assay addresses YAP (WW1+WW2) protein fragment, recombinant 104-amino acid polypeptide. In words: ITC. Background: In ITC the heat of successive injections is recorded.

As to “Smad1 peptide extended to include S206 and S214 (unphosphorylated) and the PY motif”, the fold increase of the interaction over the Smad1 peptide with only the PY motif turned out to be 2.5 fold.
